From patent US5670316

Target: RecA (UniProt P0A7G6)
Experiment: pulldown

Chain of RecA (P0A7G6 2-353): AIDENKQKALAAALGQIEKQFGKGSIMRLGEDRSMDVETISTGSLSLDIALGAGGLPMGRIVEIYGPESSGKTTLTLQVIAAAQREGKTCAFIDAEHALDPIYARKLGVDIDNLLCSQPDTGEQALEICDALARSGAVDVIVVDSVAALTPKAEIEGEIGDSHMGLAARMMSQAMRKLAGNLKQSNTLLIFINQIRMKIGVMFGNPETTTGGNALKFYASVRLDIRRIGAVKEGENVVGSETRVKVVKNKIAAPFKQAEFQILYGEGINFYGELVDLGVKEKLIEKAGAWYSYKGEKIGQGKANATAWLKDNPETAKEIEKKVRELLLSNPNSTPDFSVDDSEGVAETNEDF

| Substance | activity (capture of 32P lambda target with heterologous non-biotinylated probe, 3.1% without RecA (background)) | activity (bio-14-dATP incorporated, capture of 32P lambda DNA target, 3.7% without RecA, ATPgammaS, Mg acetate) |
| --- | --- | --- |
| phiX174 RFI nick-translated probe | 3.6% |  |
| lambda 1000-mer (6631-7630) nick-translated probe |  | 45.9% |
